From patent US20190330296A1 (Janssen / Centocor, published 2019)
Several values for one entry are separate records, joined by “and”; a condition that tells them apart may be missing. Equal values may be shown once.

T1: human neuropeptide Y2 receptor (human, UniProt P49146 1-381)
T1 sequence (looked up): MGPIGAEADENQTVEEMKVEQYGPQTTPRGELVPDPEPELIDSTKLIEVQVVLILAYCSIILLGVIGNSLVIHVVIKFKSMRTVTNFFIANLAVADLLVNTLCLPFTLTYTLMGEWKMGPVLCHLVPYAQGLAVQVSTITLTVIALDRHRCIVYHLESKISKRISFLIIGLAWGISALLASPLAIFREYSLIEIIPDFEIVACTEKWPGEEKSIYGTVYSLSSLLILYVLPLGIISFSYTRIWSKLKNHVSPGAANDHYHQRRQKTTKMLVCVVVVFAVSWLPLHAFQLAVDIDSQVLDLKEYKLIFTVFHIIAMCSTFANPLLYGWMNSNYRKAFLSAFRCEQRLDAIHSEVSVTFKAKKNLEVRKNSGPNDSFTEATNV


Key:
[1] = target: human GLP-1 receptor (human, UniProt P43220 24-463); assay: cell-based or functional assay
Sequence of human GLP-1 receptor (P43220 24-463): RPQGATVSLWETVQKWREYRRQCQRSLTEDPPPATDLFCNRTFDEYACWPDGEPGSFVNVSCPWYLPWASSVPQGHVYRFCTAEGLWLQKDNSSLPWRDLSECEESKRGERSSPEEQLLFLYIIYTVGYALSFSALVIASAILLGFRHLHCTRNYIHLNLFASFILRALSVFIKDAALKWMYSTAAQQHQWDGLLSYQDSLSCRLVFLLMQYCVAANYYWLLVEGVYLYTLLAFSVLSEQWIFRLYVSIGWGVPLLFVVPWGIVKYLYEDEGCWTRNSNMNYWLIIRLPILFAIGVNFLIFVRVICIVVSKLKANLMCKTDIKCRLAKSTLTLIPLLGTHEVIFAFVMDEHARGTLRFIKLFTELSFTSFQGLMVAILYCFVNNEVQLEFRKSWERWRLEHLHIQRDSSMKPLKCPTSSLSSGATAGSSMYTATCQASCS

[2] = target: T1, human neuropeptide Y2 receptor; assay: cell-based or functional assay

Row | Human GLP1R EC50 [1] | Human Y2R EC50 [2] [nM] | Binder
1 | 0.054 nM |  | GLP-1 fusion peptide GF27 (SEQ ID NO:139) (Fc fusion) HGEGTFTSDVSSYLEEQAAKEFIAWLVKGGGAPAPAPAPAPAPAPAPAPAPAPAPAGPPCPPCPAPEAAGGPSVFLFPPKPKDTLMISRTPEVTCVVVDVSQEDPEVQFNWYVDGVEVHNAKTKPREEQFNSTYRVVSVLTVLHQDWLNGKEYKCKVSNKGLPSSIEKTISKAKGQPREPQVYTLPPSQEEMTKNQVSLTCLVKGFYPSDIAVEWESNGQPENNYKTTPPVLDSDGSFFLYSRLTVDKSRWQEGNVFSCSVMHEALHNHYTQKSLSLSLGAPAPAPAPAPAPCPEEP
2 | 0.049 nM |  | GLP-1 fusion peptide GF41 (SEQ ID NO:153) (Fc fusion) HGEGTFTSDVSSYLEEQAAKEFIAWLVKGGGASGGGGSGGGGSGGGGSGGGGSCPPCPAPEAAGGPSVFLFPPKPKDTLMISRTPEVTCVVVDVSQEDPEVQFNWYVDGVEVHNAKTKPREEQFNSTYRVVSVLTVLHQDWLNGKEYKCKVSNKGLPSSIEKTISKAKGQPREPQVYTLPPSQEEMTKNQVSLTCLVKGFYPSDIAVEWESNGQPENNYKTTPPVLDSDGSFFLYSRLTVDKSRWQEGNVFSCSVMHEALHNHYTQKSLSLSLGKASGSAPAPAPEEEPCA
3 | 0.207 nM |  | GLP-1 fusion peptide GF40 (SEQ ID NO:152) (Fc fusion) HGEGTFTSDVSSYLEEQAAKEFIAWLVKGGGASGGGGSGGGGSCPPCPAPEAAGGPSVFLFPPKPKDTLMISRTPEVTCVVVDVSQEDPEVQFNWYVDGVEVHNAKTKPREEQFNSTYRVVSVLTVLHQDWLNGKEYKCKVSNKGLPSSIEKTISKAKGQPREPQVYTLPPSQEEMTKNQVSLTCLVKGFYPSDIAVEWESNGQPENNYKTTPPVLDSDGSFFLYSRLTVDKSRWQEGNVFSCSVMHEALHNHYTQKSLSLSLGKASGSAPAPAPEEEPCA
4 | 0.148 nM | 0.143 | GLP-1 fusion peptide coupled cyclic PYY peptide conjugate SEQ ID NO:249 (Fc fusion, [cyclo-(G2-E30), S4, K(AcBr)11, N-Me-R35]-PYY2-36; Br displaced on conjugation to the linker Cys; C-terminal amide; Cys of the second linker peptide thioether-linked to the Lys11 side chain of the cyclic PYY peptide) HGEGTFTSDVSSYLEEQAAKEFIAWLVKGGGASGGGGSGGGGSCPPCPAPEAAGGPSVFLFPPKPKDTLMISRTPEVTCVVVDVSQEDPEVQFNWYVDGVEVHNAKTKPREEQFNSTYRVVSVLTVLHQDWLNGKEYKCKVSNKGLPSSIEKTISKAKGQPREPQVYTLPPSQEEMTKNQVSLTCLVKGFYPSDIAVEWESNGQPENNYKTTPPVLDSDGSFFLYSRLTVDKSRWQEGNVFSCSVMHEALHNHYTQKSLSLSLGKASGSAPAPAPEEEPCA peptide: not shown
5 | 0.213 nM | 0.01 | GLP-1 fusion peptide coupled cyclic PYY peptide conjugate SEQ ID NO:250 (Fc fusion, [cyclo-(G2-E30), S4, K(AcBr)11, psi-(R35,Y36)]-PYY2-36; Br displaced on conjugation to the linker Cys; C-terminal amide; Cys of the second linker peptide thioether-linked to the Lys11 side chain of the cyclic PYY peptide) HGEGTFTSDVSSYLEEQAAKEFIAWLVKGGGASGGGGSGGGGSCPPCPAPEAAGGPSVFLFPPKPKDTLMISRTPEVTCVVVDVSQEDPEVQFNWYVDGVEVHNAKTKPREEQFNSTYRVVSVLTVLHQDWLNGKEYKCKVSNKGLPSSIEKTISKAKGQPREPQVYTLPPSQEEMTKNQVSLTCLVKGFYPSDIAVEWESNGQPENNYKTTPPVLDSDGSFFLYSRLTVDKSRWQEGNVFSCSVMHEALHNHYTQKSLSLSLGKASGSAPAPAPEEEPCA peptide: GISPEAPGEKASPEELNRYYASLRHYLNEVTRQRY
6 | 0.264 nM | 0.018 | GLP-1 fusion peptide coupled cyclic PYY peptide conjugate SEQ ID NO:248 (Fc fusion, [cyclo-(G2-COCH2-C30), K(AcBr)11, N-Me-R35]-PYY2-36; Br displaced on conjugation to the linker Cys; C-terminal amide; Cys of the second linker peptide thioether-linked to the Lys11 side chain of the cyclic PYY peptide) HGEGTFTSDVSSYLEEQAAKEFIAWLVKGGGASGGGGSGGGGSCPPCPAPEAAGGPSVFLFPPKPKDTLMISRTPEVTCVVVDVSQEDPEVQFNWYVDGVEVHNAKTKPREEQFNSTYRVVSVLTVLHQDWLNGKEYKCKVSNKGLPSSIEKTISKAKGQPREPQVYTLPPSQEEMTKNQVSLTCLVKGFYPSDIAVEWESNGQPENNYKTTPPVLDSDGSFFLYSRLTVDKSRWQEGNVFSCSVMHEALHNHYTQKSLSLSLGKASGSAPAPAPEEEPCA peptide: GISPEAPGEKASPEELNRYYASLRHYLNCVTRQRY
7 | 0.035 nM and 0.053 nM |  | GLP-1 fusion peptide GF54 (SEQ ID NO:166) (Fc fusion) HGEGTFTSDVSSYLEEQAAKEFIAWLVKGGGASAPAPAPAPAPAPAPAPAPAPGSCPPCPAPEAAGGPSVFLFPPKPKDTLMISRTPEVTCVVVDVSQEDPEVQFNWYVDGVEVHNAKTKPREEQFNSTYRVVSVLTVLHQDWLNGKEYKCKVSNKGLPSSIEKTISKAKGQPREPQVYTLPPSQEEMTKNQVSLTCLVKGFYPSDIAVEWESNGQPENNYKTTPPVLDSDGSFFLYSRLTVDKSRWQEGNVFSCSVMHEALHNHYTQKSLSLSLGKASGSAPAPAPEEEPCA
8 | 0.042 nM | 0.006 | GLP-1 fusion peptide coupled cyclic PYY peptide conjugate SEQ ID NO:239 (Fc fusion, [cyclo-(G2-COCH2-C30), K(AcBr)11, N-Me-R35]-PYY2-36; Br displaced on conjugation to the linker Cys; C-terminal amide; Cys of the second linker peptide thioether-linked to the Lys11 side chain of the cyclic PYY peptide) HGEGTFTSDVSSYLEEQAAKEFIAWLVKGGGASAPAPAPAPAPAPAPAPAPAPGSCPPCPAPEAAGGPSVFLFPPKPKDTLMISRTPEVTCVVVDVSQEDPEVQFNWYVDGVEVHNAKTKPREEQFNSTYRVVSVLTVLHQDWLNGKEYKCKVSNKGLPSSIEKTISKAKGQPREPQVYTLPPSQEEMTKNQVSLTCLVKGFYPSDIAVEWESNGQPENNYKTTPPVLDSDGSFFLYSRLTVDKSRWQEGNVFSCSVMHEALHNHYTQKSLSLSLGKASGSAPAPAPEEEPCA peptide: GISPEAPGEKASPEELNRYYASLRHYLNCVTRQRY
